Results as given in US20220073631A1.

Tests used:
[1] = biological target: hIL-4Rα-ECD (wild-type hIL-4Rα extracellular domain with C-terminus his-tag) (human) (UniProt P24394); test: SPR, Biacore T200, by the methods of Example 2; mean of three experiments
[2] = biological target: human IL-4Rα (Shanghai Novoprotein Technology Co., Ltd) (human) (UniProt P24394); test: SPR, Biacore T200, antibody captured on protein A, antigen as analyte, 25 C, 1:1 model

B1: Dupilumab (antibody, INN chains, looked up, V domains shown)
VH: EVQLVESGGGLEQPGGSLRLSCAGSGFTFRDYAMTWVRQAPGKGLEWVSSISGSGGNTYYADSVKGRFTISRDNSKNTLYLQMNSLRAEDTAVYYCAKDRLSITIRPRYYGLDVWGQGTTVTVSS
VL: DIVMTQSPLSLPVTPGEPASISCRSSQSLLYSIGYNYLDWYLQKSGQSPQLLIYLGSNRASGVPDRFSGSGSGTDFTLKISRVEAEDVGFYYCMQALQTPYTFGQGTKLEIKR
B1 showed a Kd [1] of 0.0588 nM, a koff [1] of 4.29e-05 s⁻¹ and a kon [1] of 707000 M⁻¹ s⁻¹. It also gave a Kd [2] of 0.136 nM, a koff [2] of 0.00011 s⁻¹ and a kon [2] of 808000 M⁻¹ s⁻¹.
